Test results taken from the supplement of paper PMC10065799, “High-throughput profiling of sequence recognition by tyrosine kinases and SH2 domains using bacterial peptide display” (eLife, 2023).

Key:
FGFR3 = FGFR3 (UniProt P22607); assay: phosphorylation enrichment, bacterial display (enrichment ratio); higher = better substrate or ligand; peptides without Tyr show the background
c-Abl (mouse) = assay: as above
Fer (mouse) = assay: as above
Jak2 = Jak2 (UniProt O60674); assay: as above
FGFR1 = FGFR1 (UniProt P11362); assay: as above
c-Src = assay: as above
EPHB1 = EPHB1 (UniProt P54762); assay: as above
Hck = Hck (UniProt P08631); assay: as above
Fyn = Fyn (UniProt P06241); assay: as above
AncSZ = assay: as above
EPHB2 = EPHB2 (UniProt P29323); assay: as above
MERTK = MERTK (UniProt Q12866); assay: as above
Fes = Fes (UniProt P07332); assay: as above
SHP2-C SH2 = assay: SH2 binding enrichment of the phosphorylated peptide, bacterial display (enrichment ratio); higher = better substrate or ligand; peptides without Tyr show the background
Grb2 SH2 = Grb2 SH2 (UniProt P62993); assay: as above
c-Src SH2 = assay: as above
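Throughout, for SH2 binding enrichment of the phosphorylated peptide, bacterial display: peptide library displayed on the E. coli surface as eCPX fusions, selected cells deep-sequenced, score is each peptide's frequency after selection divided by its frequency in the input.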
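Throughout, for phosphorylation enrichment, bacterial display: 11-residue human phosphosite peptides and single-mutation variants displayed on the E. coli surface, counted by deep sequencing, each peptide's frequency after selection divided by its frequency in the unselected input library; frequency after pTyr selection over input frequency; kinase dosed for 20-30% of maximal phosphorylation in three min.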

EPHB1, sequence (P54762 whole entry, looked up): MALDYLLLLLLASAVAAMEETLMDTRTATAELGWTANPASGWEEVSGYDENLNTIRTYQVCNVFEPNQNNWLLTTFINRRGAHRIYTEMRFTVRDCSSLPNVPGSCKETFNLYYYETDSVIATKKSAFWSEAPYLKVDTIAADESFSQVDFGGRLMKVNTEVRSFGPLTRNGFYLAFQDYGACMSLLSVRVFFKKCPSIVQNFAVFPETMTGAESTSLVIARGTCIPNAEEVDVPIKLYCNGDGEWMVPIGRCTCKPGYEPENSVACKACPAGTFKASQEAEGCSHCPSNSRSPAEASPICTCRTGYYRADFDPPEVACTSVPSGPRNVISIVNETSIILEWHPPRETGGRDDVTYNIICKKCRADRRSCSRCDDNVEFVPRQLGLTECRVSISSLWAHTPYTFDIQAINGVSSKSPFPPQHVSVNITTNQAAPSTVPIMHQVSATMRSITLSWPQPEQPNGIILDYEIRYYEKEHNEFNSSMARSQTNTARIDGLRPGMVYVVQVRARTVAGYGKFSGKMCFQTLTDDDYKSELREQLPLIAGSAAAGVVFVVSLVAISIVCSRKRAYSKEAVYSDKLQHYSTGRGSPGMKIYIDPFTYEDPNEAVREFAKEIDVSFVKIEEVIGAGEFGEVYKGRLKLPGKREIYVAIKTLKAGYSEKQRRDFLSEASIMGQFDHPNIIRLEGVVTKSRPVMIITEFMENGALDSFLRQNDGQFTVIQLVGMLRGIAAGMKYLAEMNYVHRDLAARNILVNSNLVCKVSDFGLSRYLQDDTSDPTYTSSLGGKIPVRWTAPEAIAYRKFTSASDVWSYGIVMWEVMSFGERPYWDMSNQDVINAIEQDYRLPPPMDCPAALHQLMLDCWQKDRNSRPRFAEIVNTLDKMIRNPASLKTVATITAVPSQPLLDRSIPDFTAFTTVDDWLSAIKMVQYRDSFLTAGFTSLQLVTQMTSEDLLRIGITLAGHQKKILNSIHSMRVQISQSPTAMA
Grb2 SH2, sequence (P62993 whole entry, looked up): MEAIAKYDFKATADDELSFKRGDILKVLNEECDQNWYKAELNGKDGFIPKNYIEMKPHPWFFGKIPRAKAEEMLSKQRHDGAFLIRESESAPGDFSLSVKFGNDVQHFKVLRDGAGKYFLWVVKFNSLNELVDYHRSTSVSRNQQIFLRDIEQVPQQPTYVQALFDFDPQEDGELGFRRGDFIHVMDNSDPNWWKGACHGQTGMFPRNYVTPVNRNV
Fyn, sequence (P06241 whole entry, looked up): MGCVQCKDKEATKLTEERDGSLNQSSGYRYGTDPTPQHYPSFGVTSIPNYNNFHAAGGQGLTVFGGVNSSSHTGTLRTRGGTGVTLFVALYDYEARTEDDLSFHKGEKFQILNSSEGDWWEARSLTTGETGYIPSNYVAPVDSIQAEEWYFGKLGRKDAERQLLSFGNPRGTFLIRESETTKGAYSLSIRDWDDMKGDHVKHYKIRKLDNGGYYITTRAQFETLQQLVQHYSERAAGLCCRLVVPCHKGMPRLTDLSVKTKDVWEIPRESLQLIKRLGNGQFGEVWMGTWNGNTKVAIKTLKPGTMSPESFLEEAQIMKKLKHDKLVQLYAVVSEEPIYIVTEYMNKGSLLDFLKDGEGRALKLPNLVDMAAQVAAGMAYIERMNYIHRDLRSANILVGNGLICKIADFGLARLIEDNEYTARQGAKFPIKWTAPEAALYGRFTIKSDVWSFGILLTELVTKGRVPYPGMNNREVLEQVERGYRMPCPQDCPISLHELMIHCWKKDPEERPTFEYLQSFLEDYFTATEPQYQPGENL
FGFR1, sequence (P11362 whole entry, looked up): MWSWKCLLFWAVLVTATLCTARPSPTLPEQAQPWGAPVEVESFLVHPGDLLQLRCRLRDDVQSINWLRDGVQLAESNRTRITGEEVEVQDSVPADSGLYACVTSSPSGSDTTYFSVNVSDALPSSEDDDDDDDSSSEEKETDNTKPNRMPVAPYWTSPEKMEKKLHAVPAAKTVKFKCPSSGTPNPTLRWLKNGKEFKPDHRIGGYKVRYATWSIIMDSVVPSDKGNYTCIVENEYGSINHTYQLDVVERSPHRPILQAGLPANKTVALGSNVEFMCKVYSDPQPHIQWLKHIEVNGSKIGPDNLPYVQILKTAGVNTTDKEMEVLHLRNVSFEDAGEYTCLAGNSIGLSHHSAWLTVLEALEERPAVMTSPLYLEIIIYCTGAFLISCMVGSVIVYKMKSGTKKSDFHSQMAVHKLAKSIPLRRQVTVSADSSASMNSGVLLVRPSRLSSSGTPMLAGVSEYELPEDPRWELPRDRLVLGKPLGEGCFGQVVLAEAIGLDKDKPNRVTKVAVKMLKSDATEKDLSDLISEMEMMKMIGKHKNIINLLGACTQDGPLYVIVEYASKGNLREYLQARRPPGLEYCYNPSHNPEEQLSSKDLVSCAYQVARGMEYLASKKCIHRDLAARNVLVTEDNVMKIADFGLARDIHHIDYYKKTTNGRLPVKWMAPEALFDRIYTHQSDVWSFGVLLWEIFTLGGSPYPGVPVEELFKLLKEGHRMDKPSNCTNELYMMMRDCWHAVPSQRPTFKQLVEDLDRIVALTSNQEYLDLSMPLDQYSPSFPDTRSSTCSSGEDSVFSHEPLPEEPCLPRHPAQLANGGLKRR
Hck, sequence (P08631 whole entry, looked up): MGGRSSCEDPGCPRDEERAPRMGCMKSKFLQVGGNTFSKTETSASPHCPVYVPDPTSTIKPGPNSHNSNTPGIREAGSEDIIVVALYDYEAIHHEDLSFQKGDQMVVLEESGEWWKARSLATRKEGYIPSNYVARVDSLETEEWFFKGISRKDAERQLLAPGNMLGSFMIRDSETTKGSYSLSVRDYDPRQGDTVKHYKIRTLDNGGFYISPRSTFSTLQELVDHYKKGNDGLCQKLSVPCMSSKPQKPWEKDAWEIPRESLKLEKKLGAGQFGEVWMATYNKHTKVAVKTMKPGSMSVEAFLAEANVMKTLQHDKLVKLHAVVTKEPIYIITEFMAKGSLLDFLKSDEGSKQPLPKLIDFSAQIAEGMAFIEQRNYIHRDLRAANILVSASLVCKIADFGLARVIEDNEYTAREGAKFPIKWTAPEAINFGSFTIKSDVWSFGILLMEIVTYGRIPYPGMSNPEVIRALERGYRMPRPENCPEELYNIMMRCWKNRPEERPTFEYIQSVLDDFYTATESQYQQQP
Fes, sequence (P07332 whole entry, looked up): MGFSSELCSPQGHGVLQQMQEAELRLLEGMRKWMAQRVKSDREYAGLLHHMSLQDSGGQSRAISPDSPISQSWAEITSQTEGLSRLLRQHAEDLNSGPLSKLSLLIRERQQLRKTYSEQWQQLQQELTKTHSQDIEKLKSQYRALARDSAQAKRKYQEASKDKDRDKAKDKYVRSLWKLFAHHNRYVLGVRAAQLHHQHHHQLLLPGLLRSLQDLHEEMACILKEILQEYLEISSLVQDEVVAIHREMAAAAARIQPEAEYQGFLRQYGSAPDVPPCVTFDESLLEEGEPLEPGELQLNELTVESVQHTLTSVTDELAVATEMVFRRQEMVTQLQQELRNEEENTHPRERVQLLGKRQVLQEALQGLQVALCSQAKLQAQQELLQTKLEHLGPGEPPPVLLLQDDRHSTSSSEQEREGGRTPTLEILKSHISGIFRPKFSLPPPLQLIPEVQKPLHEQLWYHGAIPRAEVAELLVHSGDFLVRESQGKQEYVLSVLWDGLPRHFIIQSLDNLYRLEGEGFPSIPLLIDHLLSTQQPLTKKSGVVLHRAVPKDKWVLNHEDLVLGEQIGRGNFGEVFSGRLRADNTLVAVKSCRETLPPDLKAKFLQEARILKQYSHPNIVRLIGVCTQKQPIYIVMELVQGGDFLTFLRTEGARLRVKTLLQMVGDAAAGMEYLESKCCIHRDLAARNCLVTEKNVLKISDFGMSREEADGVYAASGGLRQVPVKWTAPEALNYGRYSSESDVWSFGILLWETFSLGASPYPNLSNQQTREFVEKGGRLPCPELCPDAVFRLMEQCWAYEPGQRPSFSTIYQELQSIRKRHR
EPHB2, sequence (P29323 whole entry, looked up): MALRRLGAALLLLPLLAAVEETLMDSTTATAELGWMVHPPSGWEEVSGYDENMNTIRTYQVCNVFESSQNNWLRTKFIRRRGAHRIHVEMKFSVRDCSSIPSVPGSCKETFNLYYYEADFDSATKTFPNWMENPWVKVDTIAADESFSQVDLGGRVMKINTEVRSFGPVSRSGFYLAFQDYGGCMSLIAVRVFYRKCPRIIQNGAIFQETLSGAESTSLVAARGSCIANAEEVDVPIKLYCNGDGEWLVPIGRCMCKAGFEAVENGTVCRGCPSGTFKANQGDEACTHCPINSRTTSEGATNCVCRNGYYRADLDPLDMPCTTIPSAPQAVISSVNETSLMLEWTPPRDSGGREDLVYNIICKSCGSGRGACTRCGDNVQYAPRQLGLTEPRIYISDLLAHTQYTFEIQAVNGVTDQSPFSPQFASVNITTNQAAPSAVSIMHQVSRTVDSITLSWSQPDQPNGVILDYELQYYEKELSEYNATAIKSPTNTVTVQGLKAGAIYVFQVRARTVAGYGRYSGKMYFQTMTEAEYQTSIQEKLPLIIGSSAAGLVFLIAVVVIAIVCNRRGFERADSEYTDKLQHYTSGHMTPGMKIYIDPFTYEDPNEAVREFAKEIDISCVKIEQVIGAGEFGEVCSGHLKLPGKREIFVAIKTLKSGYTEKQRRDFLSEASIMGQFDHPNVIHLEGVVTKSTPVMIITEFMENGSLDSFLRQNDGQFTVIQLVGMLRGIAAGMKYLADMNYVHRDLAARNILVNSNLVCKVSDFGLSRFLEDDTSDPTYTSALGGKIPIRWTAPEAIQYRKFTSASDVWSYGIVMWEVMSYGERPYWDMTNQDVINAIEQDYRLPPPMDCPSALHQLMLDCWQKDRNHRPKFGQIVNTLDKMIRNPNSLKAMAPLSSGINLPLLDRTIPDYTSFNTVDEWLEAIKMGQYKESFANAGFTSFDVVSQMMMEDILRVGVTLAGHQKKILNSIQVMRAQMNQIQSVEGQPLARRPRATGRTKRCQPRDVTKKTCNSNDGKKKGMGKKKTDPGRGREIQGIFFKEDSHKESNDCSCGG

Row | Sequence | phosphorylation enrichment (FGFR3) | phosphorylation enrichment (c-Abl (mouse)) | phosphorylation enrichment (Fer (mouse)) | phosphorylation enrichment (Jak2) | phosphorylation enrichment (FGFR1) | phosphorylation enrichment (c-Src) | phosphorylation enrichment (EPHB1) | phosphorylation enrichment (Hck) | phosphorylation enrichment (Fyn) | phosphorylation enrichment (AncSZ) | phosphorylation enrichment (EPHB2) | phosphorylation enrichment (MERTK) | phosphorylation enrichment (Fes) | SH2 binding enrichment (SHP2-C SH2) | SH2 binding enrichment (Grb2 SH2) | SH2 binding enrichment (c-Src SH2)
1 | DEIPLYLKGGV [COX7A2_Y44] | 0.656 | 0.593 | 0.485 | 0.854 | 0.5 | 0.422 | 0.566 | 0.522 | 0.492 | 0.79 | 0.508 | 0.391 | 0.962 | 0.716 | 0.83 | 0.454
2 | DERQPYVHMNG [IGF1R_Y1346_A1347V] | 0.627 | 0.503 | 0.446 | 0.786 | 0.592 | 0.484 | 0.436 | 0.471 | 0.438 | 0.696 | 0.5 | 0.428 | 0.81 | 0.704 | 0.729 | 0.705
3 | DFAIVYGTIIL [GPR179_Y460_G455D] | 1.1 | 0.846 | 0.727 | 1.16 | 0.565 | 0.483 | 0.732 | 0.665 | 0.692 | 1.52 | 0.777 | 0.402 | 1.51 | 0.584 | 0.591 | 0.343
4 | DFFDLYGGQKF [PTPN11_Y66_E69Q_YF] | 0.715 | 0.866 | 0.82 | 0.931 | 0.609 | 6.89 | 0.464 | 8.96 | 7.17 | 1.13 | 0.662 | 0.567 | 0.94 | 0.541 | 0.883 | 0.735
5 | DFKIIYIAPMR [SNRNP200_Y540] | 0.616 | 4.59 | 0.447 | 1.18 | 0.449 | 0.572 | 0.586 | 0.556 | 0.522 | 1.21 | 0.486 | 0.437 | 1.22 | 1.32 | 1.46 | 0.759
6 | DGLALYTGSAL [COL6A3_Y524_S521L] | 0.723 | 0.749 | 0.758 | 0.901 | 0.479 | 0.635 | 0.968 | 0.901 | 0.614 | 1.09 | 0.936 | 0.55 | 1.17 | 0.46 | 0.695 | 0.36
7 | DGQVNYEELVQ [CALM1_Y139_F142L] | 0.735 | 0.781 | 0.639 | 1.43 | 0.819 | 0.614 | 1.04 | 0.594 | 0.704 | 1.47 | 0.826 | 0.659 | 1.25 | 0.733 | 0.835 | 0.745
8 | DHAGMYGLGDR [MAPT_Y18_T17M] | 0.393 | 0.411 | 0.388 | 0.45 | 0.391 | 0.454 | 0.348 | 0.471 | 0.523 | 0.556 | 0.541 | 0.371 | 0.558 | 0.472 | 0.791 | 0.44
9 | DHCNQYEQQKM [CHD7_Y75_Y72C] | 0.682 | 0.661 | 0.499 | 0.699 | 0.424 | 0.541 | 0.545 | 0.499 | 0.534 | 0.842 | 0.714 | 0.443 | 0.823 | 0.879 | 0.971 | 0.825
10 | DISEPYKVYRI [IRF8_Y107] | 0.549 | 0.62 | 0.497 | 0.78 | 0.481 | 0.622 | 0.537 | 1.34 | 0.445 | 0.911 | 0.517 | 0.487 | 0.88 | 0.795 | 0.901 | 0.479
11 | DKATEYIQFVR [MAX_Y70_M74V_YF] | 0.551 | 0.574 | 0.465 | 0.55 | 0.519 | 0.556 | 0.503 | 0.636 | 0.442 | 0.74 | 0.53 | 0.41 | 0.705 | 0.73 | 0.789 | 0.459
12 | DLVHPYVHKIL [SF3B1_Y570_R568H] | 0.567 | 0.655 | 0.497 | 1.03 | 0.457 | 0.402 | 0.468 | 0.432 | 0.495 | 0.717 | 0.51 | 0.435 | 0.841 | 0.983 | 0.937 | 0.522
13 | DMDATYRPMYS [JUP_Y701] | 0.63 | 0.656 | 0.463 | 0.65 | 0.544 | 0.568 | 0.441 | 0.677 | 0.563 | 0.678 | 0.525 | 0.407 | 0.768 | 0.521 | 0.747 | 0.513
14 | DNQFAYLKAII [HNF4A_Y288_E285Q_YF] | 0.702 | 0.711 | 0.592 | 1.02 | 0.473 | 0.372 | 0.43 | 0.393 | 0.396 | 1.16 | 0.595 | 0.369 | 1.33 | 0.62 | 0.782 | 0.353
15 | DPEATYTTSGG [EPHA2_Y772] | 0.754 | 0.943 | 0.502 | 1.09 | 0.502 | 0.789 | 0.533 | 0.591 | 0.523 | 1.22 | 0.57 | 0.418 | 1.19 | 0.528 | 0.671 | 0.435
16 | DRIVNYSRASI [ATP7A_Y1459] | 0.426 | 0.585 | 0.41 | 0.48 | 0.423 | 0.37 | 0.432 | 0.405 | 0.374 | 0.538 | 0.4 | 0.383 | 0.589 | 0.88 | 0.768 | 0.498
17 | DRLASNLDKVR [KRT10_Y160_Y160N] | 0.348 | 0.481 | 0.339 | 0.488 | 0.491 | 0.391 | 0.326 | 0.33 | 0.382 | 0.556 | 0.307 | 0.394 | 0.547 | 0.917 | 0.883 | 0.565
18 | DRLASYPDKVR [KRT14_Y129_L130P] | 0.391 | 0.482 | 0.373 | 0.508 | 0.417 | 0.372 | 0.354 | 0.387 | 0.371 | 0.508 | 0.356 | 0.383 | 0.516 | 0.587 | 0.901 | 0.461
19 | DRLAVYIDRVS [LMNA_Y45_R50S] | 0.638 | 0.351 | 0.397 | 0.725 | 0.463 | 0.311 | 0.472 | 0.503 | 0.428 | 0.881 | 0.5 | 0.33 | 0.953 | 0.589 | 0.807 | 0.58
20 | DRPASYLEKVR [KRT13_Y118_L115P] | 0.404 | 0.441 | 0.276 | 0.43 | 0.3 | 0.362 | 0.307 | 0.284 | 0.299 | 0.438 | 0.247 | 0.342 | 0.605 | 1.03 | 1.08 | 0.579
21 | DSILVYQGKEQ [USH2A_Y1909] | 0.533 | 0.536 | 0.414 | 0.734 | 0.434 | 0.515 | 0.451 | 0.621 | 0.433 | 0.717 | 0.43 | 0.333 | 0.761 | 0.595 | 0.707 | 0.493
22 | DSKIRYLSADS [TTF1_Y476_E473K] | 0.546 | 0.508 | 0.368 | 0.611 | 0.457 | 0.527 | 0.465 | 0.434 | 0.389 | 0.503 | 0.607 | 0.435 | 0.663 | 0.682 | 1.11 | 0.426
23 | DVELLYPVKEK [EPHX1_Y283] | 0.558 | 0.648 | 0.432 | 0.971 | 0.394 | 0.452 | 0.445 | 0.422 | 0.404 | 0.968 | 0.513 | 0.36 | 1.05 | 0.487 | 0.73 | 0.42
24 | DVFLKYLNFAT [PDE6B_Y212] | 0.826 | 1.46 | 0.509 | 1.56 | 0.535 | 0.597 | 0.855 | 0.544 | 0.557 | 1.23 | 0.44 | 0.647 | 1.29 | 1.5 | 1.82 | 0.935
25 | DVSVVCSEVKT [FCRL4_Y493_Y493C] | 0.838 | 0.867 | 0.537 | 0.995 | 0.625 | 0.594 | 0.617 | 0.635 | 0.681 | 1.15 | 0.614 | 0.456 | 1.3 | 0.581 | 1.1 | 0.594
26 | DVVKDCAFVHM [RBM14_Y114_Y114C] | 0.623 | 0.645 | 0.498 | 0.71 | 0.573 | 0.384 | 0.582 | 0.486 | 0.488 | 0.899 | 0.535 | 0.401 | 0.993 | 0.811 | 0.971 | 0.523
27 | DYYDLYGGEKL [PTPN11_Y66_F71L] | 14.1 | 0.871 | 1.32 | 3.12 | 16.6 | 5.5 | 7.36 | 5.89 | 5.27 | 3.2 | 8.09 | 3.9 | 1.5 | 0.935 | 0.812 | 0.709
28 | EACRSYSHVVL [CHST6_Y168] | 0.701 | 0.881 | 0.824 | 0.602 | 0.533 | 0.538 | 0.454 | 0.548 | 0.611 | 0.808 | 0.498 | 0.463 | 0.711 | 2.2 | 0.958 | 2.24
29 | EASEQHLTKAS [NRCAM_Y739_Y739H] | 0.551 | 0.663 | 0.497 | 0.692 | 0.433 | 0.396 | 0.38 | 0.447 | 0.48 | 0.887 | 0.496 | 0.343 | 0.859 | 0.598 | 0.903 | 0.53
